Results published in IntAct's records for PubMed 31515488.

B1: Zinc finger protein 544 (Homo sapiens), Q6NX49 (parent)
chain: MEARSMLVPPQASVCFEDVAMAFTQEEWEQLDLAQRTLYREVTLETWEHIVSLGLFLSKSDVISQLEQEEDLCRAEQEAPRDWKATLEENRLNSEKDRAREELSHHVEVYRSGPEEPPSLVLGKVQDQSNQLREHQENSLRFMVLTSERLFAQREHCELELGGGYSLPSTLSLLPTTLPTSTGFPKPNSQVKELKQNSAFINHEKNGADGKHCESHQCARAFCQSIYLSKLGNVETGKKNPYEYIVSGDSLNYGSSLCFHGRTFSVKKSDDCKDYGNLFSHSVSLNEQKPVHFGKSQYECDECRETCSESLCLVQTERSGPGETPFRCEERCAAFPMASSFSDCNIIQTTEKPSVCNQCGKSFSCCKLIHQRTHTGEKPFECTQCGKSFSQSYDLVIHQRTHTGEKPYECDLCGKSFTQRSKLITHQRIHTGEKPYQCIECRKSFRWNSNLIVHQRIHTGEKPYECTHCGKSFSQSYELVTHKRTHTGEKPFKCTQCGKSFSQKYDLVVHQRTHTGEKPYECNLCGKSFSQSSKLITHQRIHTGEKPYQCIECGKSFRWNSNLVIHQRIHTGEKPYDCTHCGKSFSQSYQLVAHKRTHTGEKPYECNECGKAFNRSTQLIRHLQIHTGEKPYKCNQCNKAFARSSYLVMHQRTHTGEKPFECSQCGKAFSGSSNLLSHHRIHSGEKPYECSDCGKSFRQQSQLVVHRRTHTGEKP
B2: Centrosomal protein of 55 kDa (Homo sapiens), Q53EZ4 (parent)
chain: MSSRSTKDLIKSKWGSKPSNSKSETTLEKLKGEIAHLKTSVDEITSGKGKLTDKERHRLLEKIRVLEAEKEKNAYQLTEKDKEIQRLRDQLKARYSTTTLLEQLEETTREGERREQVLKALSEEKDVLKQQLSAATSRIAELESKTNTLRLSQTVAPNCFNSSINNIHEMEIQLKDALEKNQQWLVYDQQREVYVKGLLAKIFELEKKTETAAHSLPQQTKKPESEGYLQEEKQKCYNDLLASAKKDLEVERQTITQLSFELSEFRRKYEETQKEVHNLNQLLYSQRRADVQHLEDDRHKTEKIQKLREENDIARGKLEEEKKRSEELLSQVQFLYTSLLKQQEEQTRVALLEQQMQACTLDFENEKLDRQHVQHQLHVILKELRKARNQITQLESLKQLHEFAITEPLVTFQGETENREKVAASPKSPTAALNESLVECPKCNIQYPATEHRDLLVHVEYCSK
partner: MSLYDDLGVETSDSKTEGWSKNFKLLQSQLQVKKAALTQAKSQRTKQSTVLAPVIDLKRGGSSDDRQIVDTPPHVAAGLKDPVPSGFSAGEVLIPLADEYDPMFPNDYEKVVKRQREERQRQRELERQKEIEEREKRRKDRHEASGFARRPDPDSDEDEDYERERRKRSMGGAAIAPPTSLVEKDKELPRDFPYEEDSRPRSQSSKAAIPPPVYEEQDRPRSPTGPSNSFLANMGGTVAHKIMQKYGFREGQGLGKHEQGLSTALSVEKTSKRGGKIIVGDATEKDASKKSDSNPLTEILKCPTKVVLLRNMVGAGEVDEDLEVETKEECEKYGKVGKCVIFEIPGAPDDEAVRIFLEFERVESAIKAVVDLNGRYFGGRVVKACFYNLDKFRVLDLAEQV
B3: Calcium-binding and coiled-coil domain-containing protein 2 (Homo sapiens), Q13137 (parent)
chain: MEETIKDPPTSAVLLDHCHFSQVIFNSVEKFYIPGGDVTCHYTFTQHFIPRRKDWIGIFRVGWKTTREYYTFMWVTLPIDLNNKSAKQQEVQFKAYYLPKDDEYYQFCYVDEDGVVRGASIPFQFRPENEEDILVVTTQGEVEEIEQHNKELCKENQELKDSCISLQKQNSDMQAELQKKQEELETLQSINKKLELKVKEQKDYWETELLQLKEQNQKMSSENEKMGIRVDQLQAQLSTQEKEMEKLVQGDQDKTEQLEQLKKENDHLFLSLTEQRKDQKKLEQTVEQMKQNETTAMKKQQELMDENFDLSKRLSENEIICNALQRQKERLEGENDLLKRENSRLLSYMGLDFNSLPYQVPTSDEGGARQNPGLAYGNPYSGIQESSSPSPLSIKKCPICKADDICDHTLEQQQMQPLCFNCPICDKIFPATEKQIFEDHVFCHSL
partner: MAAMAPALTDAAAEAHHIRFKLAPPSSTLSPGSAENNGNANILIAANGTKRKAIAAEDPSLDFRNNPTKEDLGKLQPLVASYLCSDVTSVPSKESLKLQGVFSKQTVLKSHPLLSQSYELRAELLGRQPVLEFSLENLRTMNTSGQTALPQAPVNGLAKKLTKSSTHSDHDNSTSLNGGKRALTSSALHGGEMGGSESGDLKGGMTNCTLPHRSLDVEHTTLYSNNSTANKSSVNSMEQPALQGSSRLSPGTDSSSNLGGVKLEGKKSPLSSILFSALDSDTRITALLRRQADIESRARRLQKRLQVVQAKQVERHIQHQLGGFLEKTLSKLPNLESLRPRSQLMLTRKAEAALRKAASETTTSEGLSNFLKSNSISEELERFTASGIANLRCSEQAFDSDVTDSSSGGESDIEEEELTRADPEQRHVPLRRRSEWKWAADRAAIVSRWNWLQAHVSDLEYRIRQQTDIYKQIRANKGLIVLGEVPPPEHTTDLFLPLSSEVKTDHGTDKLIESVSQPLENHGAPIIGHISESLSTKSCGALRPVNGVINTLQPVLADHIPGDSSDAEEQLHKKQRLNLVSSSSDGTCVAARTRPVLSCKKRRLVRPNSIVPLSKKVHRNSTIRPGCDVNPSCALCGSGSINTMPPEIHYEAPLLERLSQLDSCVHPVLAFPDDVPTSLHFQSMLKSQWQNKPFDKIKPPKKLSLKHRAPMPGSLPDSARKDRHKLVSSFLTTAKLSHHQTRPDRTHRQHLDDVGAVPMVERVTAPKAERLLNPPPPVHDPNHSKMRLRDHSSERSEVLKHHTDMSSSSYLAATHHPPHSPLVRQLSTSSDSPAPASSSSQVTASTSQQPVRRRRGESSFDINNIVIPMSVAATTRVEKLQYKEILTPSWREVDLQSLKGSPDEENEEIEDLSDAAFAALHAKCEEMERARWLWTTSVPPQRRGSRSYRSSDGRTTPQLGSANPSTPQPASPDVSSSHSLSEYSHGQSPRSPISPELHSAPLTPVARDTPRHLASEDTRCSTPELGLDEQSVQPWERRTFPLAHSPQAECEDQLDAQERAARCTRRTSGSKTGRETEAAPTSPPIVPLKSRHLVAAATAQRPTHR
B4: Probable RNA-binding protein EIF1AD (Homo sapiens), Q8N9N8 (parent)
chain: MSQATKRKHVVKEVLGEHIVPSDQQQIVRVLRTPGNNLHEVETAQGQRFLVSMPSKYRKNIWIKRGDFLIVDPIEEGEKVKAEISFVLCKDHVRSLQKEGFWPEAFSEVAEKHNNRNRQTQPELPAEPQLSGEESSSEDDSDLFVNTNRRQYHESEEESEEEEAA
partner: B2 chain
B5: Modulator of apoptosis 1 (Homo sapiens), Q96BY2 (parent)
chain: MTLRLLEDWCRGMDMNPRKALLIAGISQSCSVAEIEEALQAGLAPLGEYRLLGRMFRRDENRKVALVGLTAETSHALVPKEIPGKGGIWRVIFKPPDPDNTFLSRLNEFLAGEGMTVGELSRALGHENGSLDPEQGMIPEMWAPMLAQALEALQPALQCLKYKKLRVFSGRESPEPGEEEFGRWMFHTTQMIKAWQVPDVEKRRRLLESLRGPALDVIRVLKINNPLITVDECLQALEEVFGVTDNPRELQVKYLTTYQKDEEKLSAYVLRLEPLLQKLVQRGAIERDAVNQARLDQVIAGAVHKTIRRELNLPEDGPAPGFLQLLVLIKDYEAAEEEEALLQAILEGNFT
partner: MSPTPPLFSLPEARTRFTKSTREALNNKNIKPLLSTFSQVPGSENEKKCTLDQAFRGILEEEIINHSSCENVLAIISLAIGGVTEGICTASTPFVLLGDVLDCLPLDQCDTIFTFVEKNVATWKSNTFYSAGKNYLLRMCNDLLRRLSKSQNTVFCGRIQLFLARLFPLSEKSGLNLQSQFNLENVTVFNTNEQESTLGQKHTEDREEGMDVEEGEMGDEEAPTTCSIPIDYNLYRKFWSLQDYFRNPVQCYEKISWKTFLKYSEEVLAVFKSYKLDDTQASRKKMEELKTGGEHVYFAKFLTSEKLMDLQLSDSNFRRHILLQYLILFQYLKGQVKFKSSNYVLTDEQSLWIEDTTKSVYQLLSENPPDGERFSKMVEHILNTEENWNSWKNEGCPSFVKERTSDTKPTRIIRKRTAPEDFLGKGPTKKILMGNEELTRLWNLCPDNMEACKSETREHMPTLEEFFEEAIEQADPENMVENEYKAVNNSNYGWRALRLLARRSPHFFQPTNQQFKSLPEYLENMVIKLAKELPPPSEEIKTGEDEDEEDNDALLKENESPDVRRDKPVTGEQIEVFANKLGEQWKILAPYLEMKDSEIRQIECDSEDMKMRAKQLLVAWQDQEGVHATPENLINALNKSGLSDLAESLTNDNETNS
B6: Oxidative stress-induced growth inhibitor 1 (Homo sapiens), Q9UJX0 (parent)
chain: MSSSRKDHLGASSSEPLPVIIVGNGPSGICLSYLLSGYTPYTKPDAIHPHPLLQRKLTEAPGVSILDQDLDYLSEGLEGRSQSPVALLFDALLRPDTDFGGNMKSVLTWKHRKEHAIPHVVLGRNLPGGAWHSIEGSMVILSQGQWMGLPDLEVKDWMQKKRRGLRNSRATAGDIAHYYRDYVVKKGLGHNFVSGAVVTAVEWGTPDPSSCGAQDSSPLFQVSGFLTRNQAQQPFSLWARNVVLATGTFDSPARLGIPGEALPFIHHELSALEAATRVGAVTPASDPVLIIGAGLSAADAVLYARHYNIPVIHAFRRAVDDPGLVFNQLPKMLYPEYHKVHQMMREQSILSPSPYEGYRSLPRHQLLCFKEDCQAVFQDLEGVEKVFGVSLVLVLIGSHPDLSFLPGAGADFAVDPDQPLSAKRNPIDVDPFTYQSTRQEGLYAMGPLAGDNFVRFVQGGALAVASSLLRKETRKPP
partner: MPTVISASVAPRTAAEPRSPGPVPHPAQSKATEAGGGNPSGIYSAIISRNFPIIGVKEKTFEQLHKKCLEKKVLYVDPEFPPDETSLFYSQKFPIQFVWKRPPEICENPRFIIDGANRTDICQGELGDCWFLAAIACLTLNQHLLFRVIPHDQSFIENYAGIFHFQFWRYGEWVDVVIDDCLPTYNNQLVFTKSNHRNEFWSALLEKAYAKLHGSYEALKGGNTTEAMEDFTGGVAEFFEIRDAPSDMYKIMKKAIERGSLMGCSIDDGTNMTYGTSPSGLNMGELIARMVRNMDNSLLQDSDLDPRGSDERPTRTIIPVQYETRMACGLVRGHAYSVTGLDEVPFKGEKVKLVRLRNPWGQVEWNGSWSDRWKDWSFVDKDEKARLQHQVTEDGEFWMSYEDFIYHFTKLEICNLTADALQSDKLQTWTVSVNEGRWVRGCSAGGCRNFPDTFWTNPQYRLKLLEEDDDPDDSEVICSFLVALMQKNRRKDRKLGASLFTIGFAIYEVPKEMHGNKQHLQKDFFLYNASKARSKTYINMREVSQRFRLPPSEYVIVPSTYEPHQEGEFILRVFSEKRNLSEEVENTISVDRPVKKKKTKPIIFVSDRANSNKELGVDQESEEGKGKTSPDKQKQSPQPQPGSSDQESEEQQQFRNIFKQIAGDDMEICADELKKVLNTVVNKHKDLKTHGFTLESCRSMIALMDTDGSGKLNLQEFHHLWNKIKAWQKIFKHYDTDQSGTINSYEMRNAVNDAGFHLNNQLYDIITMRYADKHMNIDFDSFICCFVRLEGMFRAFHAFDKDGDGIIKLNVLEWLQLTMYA

Variants of: B1
Conditions: with traf2_human TRAF2, Q12933
Sequence of traf2_human TRAF2, Q12933 (Q12933 whole entry): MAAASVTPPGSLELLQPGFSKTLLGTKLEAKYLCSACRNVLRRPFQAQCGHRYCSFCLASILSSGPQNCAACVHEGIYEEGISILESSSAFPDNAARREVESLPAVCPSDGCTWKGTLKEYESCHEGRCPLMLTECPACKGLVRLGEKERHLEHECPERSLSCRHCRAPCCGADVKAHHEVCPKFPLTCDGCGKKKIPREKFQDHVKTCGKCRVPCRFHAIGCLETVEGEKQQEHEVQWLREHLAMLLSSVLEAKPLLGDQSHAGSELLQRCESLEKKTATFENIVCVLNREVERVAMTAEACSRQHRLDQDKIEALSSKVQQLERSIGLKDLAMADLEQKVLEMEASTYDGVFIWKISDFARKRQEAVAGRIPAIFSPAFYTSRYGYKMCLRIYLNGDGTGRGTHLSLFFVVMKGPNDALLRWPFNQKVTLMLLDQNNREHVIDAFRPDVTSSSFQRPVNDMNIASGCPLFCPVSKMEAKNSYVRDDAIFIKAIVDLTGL

Variant	effect of a mutation on the interaction
K406M	disrupting interaction strength

Variants of: B2
Conditions: with spf45_human RBM17, Q96I25

Variant	effect of a mutation on the interaction
H57Q	with no effect
C236R	with no effect
A244P	with no effect
R348K	with no effect

Variants of: B3
Conditions: with kanl1_human KANSL1, Q7Z3B3

Variant	effect of a mutation on the interaction
P389A	with no effect
T273A	with no effect

Variants of: B4
Conditions: with cep55_human CEP55, Q53EZ4

Variant	effect of a mutation on the interaction
R48C	with no effect

Variants of: B5
Conditions: with thoc1_human THOC1, Q96FV9

Variant	effect of a mutation on the interaction
R57K	with no effect

Variants of: B6
Conditions: with can3_human CAPN3, P20807

Variant	effect of a mutation on the interaction
S236L	with no effect
D320N	with no effect
